Among the data in US6713265 (SYNAPTIC PHARMACEUTICAL, dated 2004) are Ki values, retold here.

The Ki is a dissociation constant, usually derived from enzyme kinetics or from competition with a known ligand. The low end stands for a stronger hold on the target, the high end for a looser hold on the target.

Like-named read-outs stand apart in the source and are kept apart here.

Assay [1] deals with T1, human Y2 receptor (human, UniProt P49146 1-381).
T1 construct: whole, on cells
T1 sequence (looked up): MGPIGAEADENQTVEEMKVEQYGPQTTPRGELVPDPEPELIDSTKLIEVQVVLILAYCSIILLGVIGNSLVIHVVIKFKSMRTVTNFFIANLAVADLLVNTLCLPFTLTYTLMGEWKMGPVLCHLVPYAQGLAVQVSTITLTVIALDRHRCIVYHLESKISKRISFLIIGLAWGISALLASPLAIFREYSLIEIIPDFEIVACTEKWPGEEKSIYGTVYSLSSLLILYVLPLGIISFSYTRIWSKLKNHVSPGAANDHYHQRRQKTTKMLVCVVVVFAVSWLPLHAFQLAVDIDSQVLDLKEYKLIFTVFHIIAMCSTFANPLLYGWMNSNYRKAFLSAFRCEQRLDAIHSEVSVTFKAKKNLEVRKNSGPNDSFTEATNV
The assay can be described thus: 125I-PYY displacement, COS-7 membranes.

Assay [2] deals with T1, human Y2 receptor. The assay can be described thus: 125I-PYY displacement, COS-7 membranes. This is another data set of the same source.

B1: porcine NPY26-36 (peptide, UniProt P01304 35-45, looked up)
peptide: HYINLITRQRY
notes: range 26-36; Range counted on the mature peptide
As to B1, the Ki in assay [1] and in assay [2] was 380 nM each time.
